Measurements published in patent US20210355194A1 (TWIST BIOSCIENCE, published 2021).

Molecular target: T1, Acro SARS-CoV-2 (COVID-19) S1 protein (SARS-CoV-2, UniProt P0DTC2 16-685)
T1 construct: also called SARS-CoV-2 S1
Experiment: SPR

Binder | Kd [nM]
variant 6-39 (Fc fusion) VHH: EVQLVESGGGLVQPGGSLRLSCAASGFTFSPSWMGWFRQAPGKEREFVAAISWSGGSTAYADSVKGRFTISADNSKNTAYLQMNSLKPEDTAVYYCHGLGEGDPYGDYEGYFDLWGQGTLVTVSS | 11.3
variant 6-37 (Fc fusion) VHH: EVQLVESGGGLVQPGGSLRLSCAASGHTFSTSWMGWFRQAPGKEREFVATINSLGGTNYADSVKGRFTISADNSKNTAYLQMNSLKPEDTAVYYCARVSSGDYGMDVWGQGTLVTVSS | 22.5
variant 6-44 (Fc fusion) VHH: EVQLVESGGGLVQPGGSLRLSCAASGGTFGVYHMGWFRQAPGKEREFIGRITWTDGSTYYADSVKGRFTISADNSKNTAYLQMNSLKPEDTAVYYCFGLLEVYDMTFDYWGQGTLVTVSS | 8.2
variant 6-42 (Fc fusion) VHH: EVQLVESGGGLVQPGGSLRLSCAASGDTYGSYWMGWFRQAPGKEREFVAVITSGGSTNYADSVKGRFTISADNSKNTAYLQMNSLKPEDTAVYYCTHVQNSYYYAMDVWGQGTLVTVSS | 10.1
variant 6-12 (Fc fusion) VHH: EVQLVESGGGLVQPGGSLRLSCAASGSTYTTYSMGWFRQAPGKEREFVAAISGSENVTSYADSVKGRFTISADNSKNTAYLQMNSLKPEDTAVYYCARVDDYMDVWGQGTLVTVSS | 50.2
variant 6-18 (Fc fusion) VHH: EVQLVESGGGLVQPGGSLRLSCAASGLTFRNYAMGWFRQAPGKEREFIAGMMWSGGTTTYADSVKGRFTISADNSKNTAYLQMNSLKPEDTAVYYCAREGYYYDSSGYLNYFDYWGQGTLVTVSS | 30.1
variant 6-40 (Fc fusion) VHH: EVQLVESGGGLVQPGGSLRLSCAASGFTFSDYWMGWFRQAPGKERELVARVWWNGGSAYYADSVKGRFTISADNSKNTAYLQMNSLKPEDTAVYYCAREVLRQQVVLDYWGQGTLVTVSS | 44.3
variant 6-14 (Fc fusion) VHH: EVQLVESGGGLVQPGGSLRLSCAASGITFRFKAMGWFRQAPGKEREFVAAVSWDGRNTYYADSVKGRFTISADNSKNTAYLQMNSLKPEDTAVYYCASDYYYMDVWGQGTLVTVSS | 135
variant 6-5 (Fc fusion) VHH: EVQLVESGGGLVQPGGSLRLSCAASGRTFTMGWFRQAPGKEREFVASTNSAGSTNYADSVNGRFTISADNSKNTAYLQMNSLKPEDTAVYYCTTVDQYFDYWGQGTLVTVSS | 24.9
variant 6-10 (Fc fusion) VHH: EVQLVESGGGLVQPGGSLRLSCAASGSIASIHAMGWFRQAPGKEREFVAAISRSGGFGSYADSVKGRFTISADNSKNTAYLQMNSLKPEDTAVYYCARDDKYYDSSGYPAYFQHWGQGTLVTVSS | 29.7
variant 6-45 (Fc fusion) VHH: EVQLVESGGGLVQPGGSLRLSCAASGNMFSINAMGWFRQAPGKEREFVTLISWSSGRTSYADSVKGRFTISADNSKNTAYLQMNSLKPEDTAVYYCASLGYCSGGSCFDYWGQGTLVTVSS | 17.5
variant 6-49 (Fc fusion) VHH: EVQLVESGGGLVQPGGSLRLSCAASGSTVLINAMGWFRQAPGKEREFVAAISWSPGRTDYADSVKGRFTISADNSKNTAYLQMNSLKPEDTAVYYCARDCSGGSCYSGDYWGQGTLVTVSS | 58.2
variant 6-46 (Fc fusion) VHH: EVQLVESGGGLVQPGGSLRLSCAASGLTFSAMGWFRQAPGKEREFVALIRRDGSTIYADSVKGRFTISADNSKNTAYLQMNSLKPEDTAVYYCAALGILFGYDAFDIWGQGTLVTVSS | 18.1
variant 6-23 (Fc fusion) VHH: EVQLVESGGGLVQPGGSLRLSCAASGSIFSMNTMGWFRQAPGKEREFVALINRSGGGINYADSVKGRFTISADNSKNTAYLQMNSLKPEDTAVYYCVRLSSGYYDFDYWGQGTLVTVSS | 59.3
variant 6-13 (Fc fusion) VHH: EVQLVESGGGLVQPGGSLRLSCAASGLTFNDYAMGWFRQAPGKEREFVAHIPRSTYSPYYADSVKGRFTISADNSKNTAYLQMNSLKPEDTAVYYCAFLVGPQGVDHGAFDVWGQGTLVTVSS | 25.3
variant 6-25 (Fc fusion) VHH: EVQLVESGGGLVQPGGSLRLSCAASGLTFGTYTMGWFRQAPGKEREFVAAISRFGSTYYADSVKGRFTISADNSKNTAYLQMNSLKPEDTAVYYCARGGDYDFWSVDYMDVWGQGTLVTVSS | 248
variant 6-47 (Fc fusion) VHH: EVQLVESGGGLVQPGGSLRLSCAASGRTFSMHAMGWFRQAPGKERELVASITYGGNINYADSVKGRFTISADNSKNTAYLQMNSLKPEDTAVYYCAKEGYYDSTGYRTYFQQWGQGTLVTVSS | 43.9

Binder | Kd [nM]
variant 6-16 (Fc fusion) VHH: EVQLVESGGGLVQPGGSLRLSCAASGFTFDDAAMGWFRQAPGKEREFVAHISWSGGSTYYADSVKGRFTISADNSKNTAYLQMNSLKPEDTAVYYCATFGATVTATNDAFDIWGQGTLVTVSS | 52.1
variant 6-35 (Fc fusion) VHH: EVQLVESGGGLVQPGGSLRLSCAASGFTLAYYAMGWFRQAPGKEREFVAAISMSGDDTIYADSVKGRFTISADNSKNTAYLQMNSLKPEDTAVYYCARELGYSSTVWPWGQGTLVTVSS | 251
variant 6-43 (Fc fusion) VHH: EVQLVESGGGLVQPGGSLRLSCAASGRTFSSYAMMGWFRQAPGKEREFVASVNWDASQINYADSVKGRFTISADNSKNTAYLQMNSLKPEDTAVYYCTTLGAVYFDSSGYHDYFDYWGQGTLVTVSS | 17.9
variant 6-22 (Fc fusion) VHH: EVQLVESGGGLVQPGGSLRLSCAASGRTFSEVVMGWFRQAPGKEREFVATIHSSGSTSYADSVKGRFTISADNSKNTAYLQMNSLKPEDTAVYYCVRVTSDYSMDSWGQGTLVTVSS | 25.6
variant 6-28 (Fc fusion) VHH: EVQLVESGGGLVQPGGSLRLSCAASGDTYGSYWMGWFRQAPGKEREFVATITSDDRTNYADSVKGRFTISADNSKNTAYLQMNSLKPEDTAVYYCARVTSSLSGMDVWGQGTLVTVSS | 54.1
variant 6-19 (Fc fusion) VHH: EVQLVESGGGLVQPGGSLRLSCAASGSILSIAVMGWFRQAPGKEREFVAAISPSAVTTYYADSVKGRFTISADNSKNTAYLQMNSLKPEDTAVYYCAIGYYDSSGYFDYWGQGTLVTVSS | 71
variant 6-34 (Fc fusion) VHH: EVQLVESGGGLVQPGGSLRLSCAASGSAFRSNAMGWFRQAPGKEREFVAHISWSSKSTYYADSVKGRFTISADNSKNTAYLQMNSLKPEDTAVYYCATYCSSTSCFDYWGQGTLVTVSS | 21.3
variant 6-9 (Fc fusion) VHH: EVQLVESGGGLVQPGGSLRLSCAASGFTFDYYAMGWFRQAPGKEREFVSAIDSEGRTSYADSVKGRFTISADNSKNTAYLQMNSLKPEDTAVYYCARWGPFDIWGQGTLVTVSS | 18.5
variant 6-33 (Fc fusion) VHH: EVQLVESGGGLVQPGGSLRLSCAASGTFQRINHMGWFRQAPGKEREFVATINTGGQPNYADSVKGRFTISADNSKNTAYLQMNSLKPEDTAVYYCASLIAAQDYYFDYWGQGTLVTVSS | 76.4
variant 6-36 (Fc fusion) VHH: EVQLVESGGGLVQPGGSLRLSCAASGFDFSVSWMGWFRQAPGKEREFVTAITWSGDSTNYADSVKGRFTISADNSKNTAYLQMNSLKPEDTAVYYCASLLHTGPSGGNYFDYWGQGTLVTVSS | 32.1
variant 6-17 (Fc fusion) VHH: EVQLVESGGGLVQPGGSLRLSCAASGNTGSTGYMGWFRQAPGKEREMVAGVINDGSTVYADSVKGRFTISADNSKNTAYLQMNSLKPEDTAVYYCARLATSHQDGTGYLFDYWGQGTLVTVSS | 65.2
variant 6-32 (Fc fusion) VHH: EVQLVESGGGLVQPGGSLRLSCAASGFTLDYYDMGWFRQAPGKEREFVALISWSGGSTYYADSVKGRFTISADNSKNTAYLQMNSLKPEDTAVYYCATDFYGWGTRERDAFDIWGQGTLVTVSS | 27.2
variant 6-41 (Fc fusion) VHH: EVQLVESGGGLVQPGGSLRLSCAASGFTFSTSWMGWFRQAPGKEREFVASINEYGGRNYADSVKGRFTISADNSKNTAYLQMNSLKPEDTAVYYCAGLHYYYDSSGYNPTEYYGMDVWGQGTLVTVSS | 51.5
variant 6-38 (Fc fusion) VHH: EVQLVESGGGLVQPGGSLRLSCAASGNTFSGGFMGWFRQAPGKEREFVAVISSLSSKSYADSVKGRFTISADNSKNTAYLQMNSLKPEDTAVYYCAKVDSGYDYWGQGTLVTVSS | 26.6
variant 6-6 (Fc fusion) VHH: EVQLVESGGGLVQPGGSLRLSCAASGTTLDYYAMGWFRQAPGKERELVAAISWSGGSTAYADSVKGRFTISADNSKNTAYLQMNSLKPEDTAVYYCAREDYYDSSGYSWGQGTLVTVSS | 6.4
variant 6-24 (Fc fusion) VHH: EVQLVESGGGLVQPGGSLRLSCAASGFTLDYYAMGWFRQAPGKEREFVAAINWSGDNTHYADSVKGRFTISADNSKNTAYLQMNSLKPEDTAVYYCARAPFYCTTTKCQDNYYYMDVWGQGTLVTVSS | 29.9
variant 6-31 (Fc fusion) VHH: EVQLVESGGGLVQPGGSLRLSCAASGDTFSANRMGWFRQAPGKEREFVASITWSSANTYYADSVKGRFTISADNSKNTAYLQMNSLKPEDTAVYYCATFNWNDEGFDFWGQGTLVTVSS | 39.6
